Here are results for nine molecules from patent publication US11180770B2, “HPPD variants and methods of use” (BASF Agricultural Solutions Seed US LLC, priority 2017, dated 2021).

The data set concerns HPPD polypeptides. Kind of data set: coupled HPPD activity assay: turnover and residual turnover in crude extracts. In kind it is biochemical, Pseudomonas fluorescens. The conditions noted are these: for Residual turnover: presence of 100 μM Cmpd. 1, changes in absorbance (OD) at 320 nm; for Residual turnover / Turnover: high substrate concentration; for Residual turnover [%]: 100 μM Cmpd. 1, signal change with inhibitor divided by signal change without inhibitor; for Turnover: absence of Cmpd. 1, kinetic changes in absorbance (OD) at 320 nm, 30 min; for turnover / residual turnover in the presence of Cmpd. 1 compared with a reference HPPD polypeptide, in words: comparison with the reference or parent polypeptide. As for the experimental part: The activity of HPPD polypeptides was determined in absence or presence of HPPD inhibitors using the coupled HPPD activity assay (FIG. 1).
For the determination of the residual activity, the apparent kinetic constant (kapp) of the determined substrate conversion was measured as kinetic changes in absorbance (OD) at 320 nm in a coupled assay, in that homogentisate (HGA) formed by HPPD from HPP is directly converted into the well absorbing molecule maleylacetoacetate (MAA) by a second enzyme homogentisate dioxygenase (HGD), applied in excess uniformly in all assays (see FIG. 1). The measurements were performed in 384 micro titer plates (Greiner Bio-One GmbH, Frickenhausen, Germany) by plate readers (Tecan infinite M1000 or M1000PRO, Tecan, Männedorf, Switzerland). The kcat/kM ratio of an enzymatic activity is proportional to the apparent kinetic constant kapp and is proportional to kcat/kM*[E] ([E]=enzyme concentration). […] As both kapp measurements in the presence and absence of inhibitor were performed by use of the identical enzyme sample, crude or purified, and thereby at the same enzyme concentration, the enzyme concentration eliminates from the calculation of residual activity and the ratio of both kapp directly indicates the change of kM due to the inhibition.
The assay solution used for determination of residual activities in raw HPPD polypeptide samples was composed by 200 mM sodium phosphate (Merck, Darmstadt, Germany, pH 7.0), 5 mM MgCl2 (Merck, Darmstadt, Germany), 20 mM ascorbate (Sigma-Aldrich, St. Louis, USA), 1 mM DTT (Sigma-Aldrich, St. Louis, USA), 0.1% Pluronic F-68 (Sigma-Aldrich, St. Louis, USA), 40 μM FeSO4 (Sigma-Aldrich, St. Louis, USA), about 8 mg/ml purified HGD and 500 μM HPP from a 1 M stock solution in DMSO (Sigma-Aldrich, St. Louis, USA) and equilibrated for 20 min on ice. For every HPPD polypeptide sample two assays were performed in quadruplets, whereby 5 μl of HPPD polypeptide sample were mixed firstly with 5 μl buffer (1×BugBuster®; (Merck, Darmstadt, Germany); in 140 mM Tris, pH 7.8, with 1:25000 diluted BNase®; Qiagen, Hilden, Germany)) or 5 μl inhibitor diluted in the same buffer from a 0.1 M stock solution in DMSO (200 μM resulting in 100 μM in the HPPD polypeptide/inhibitor sample) in the reference and inhibition assay, respectively, and subsequently with 10 μl assay solution. The change in absorbance at 320 nm was followed in 1 min intervals for 30 min. The kapp values were calculated as signal slope over time in the early phase of the kinetic reaction, usually for the first 5-10 minutes of the measurements. Additionally and according to the calculated residual activity, the total conversion, i.e. the absolute change in signal, in the 30 min timeframe was monitored as measure of turnover, and a residual turnover was calculated by dividing the change in signal in the presence of inhibitor by the change in signal in the reference sample without inhibitor.
Residual turnover were determined according to Example 3 by measuring total change in signal in the presence and absence of Cmpd. 1 (2-chloro-3-(methylsulfanyl)-N-(1-methyl-1H-tetrazol-5-yl)-4-(trifluoromethyl)benzamide). For each mutant HPPD polypeptide, the total change in signal without HPPD inhibitor herbicides served for normalization of the total change in signal in the presence of the herbicide.

B1: SEQ ID NO:2 (protein)
chain: MADLYENPMGLMGFEFIEFASPTPGTLEPIFEIMGFTKVATHRSKNVHLYRQGEINLILNNEPNSIASYFAAEHGPSVCGMAFRVKDSQKAYNRALELGAQPIHIDTGPMELNLPAIKGIGGAPLYLIDRFGEGSSIYDIDFVYLEGVERNPVGAGLKVIDHLTHNVYRGRMVYWANFYEKLFNFREARYFDIKGEYTGLTSKAMSAPDGMIRIPLNEESSKGAGQIEEFLMQFNGEGIQHVAFLTDDLVKTWDALKKIGMRFMTAPPDTYYEMLEGRLPDHGEPVDQLQARGILLDGSSVEGDKRLLLQIFSETLMGPVFFEFIQRKGDDGFGPWNFAQLFESIERDQVRRGVLTAD
modifications: mutant HPPD polypeptide
On to B1, for which the Residual turnover is 0.026.

B2: 46 (protein)
chain: MADLYENPMGLMGFEFIEFASPTPGTLEPIFEIMGFTKVATHRSKNVHLYRQGEINLILNNEPNSIASYFAAEHGPSVCGMAFRVKDSQKAYNRALELGAQPIHIDTGPMELNLPAIKGIGGAPLYLIDRFGEGSSIYDIDFVYLEGVERNPVGAGLKVIDHLTHNVYRGRMVYWANFYEKLFNFREARYFDIKGEYTGLTSKAMSAPDGMIRIPLNEESSKGAGQIEEFLMQFNGEGIQHVAFLTDDLVKTWDALKKIGMRFMTAPGDNYYEMLEGRLPDHGEPVDQLQARGILLDGSSVEGDKRLLLQIFSETLMGPVFFEFIQRKGDDGFGPHSFKVLFEQVERDQVRRGVLTAD
modifications: mutant HPPD polypeptide
For the molecule B2, the “Residual turnover [%]” value was found to be 55%, the Turnover is 0.179 and the Residual turnover is on record as 0.098.

B3: 47 (protein)
chain: MADLYENPMGLMGFEFIEFASPTPGTLEPIFEIMGFTKVATHRSKNVHLYRQGEINLILNNEPNSIASYFAAEHGPSVCGMAFRVKDSQKAYNRALELGAQPIHIDTGPMELNLPAIKGIGGAPLYLIDRFGEGSSIYDIDFVYLEGVERNPVGAGLKVIDHLTHNVYRGRMVYWANFYEKLFNFREARYFDIKGEYTGLTSKAMSAPDGMIRIPLNEESSKGAGQIEEFLMQFNGEGIQHVAFLTDDLVKTWDALKKIGMRFMTAPADNYYEMLEGRLPDHGEPVDQLQARGILLDGSSVEGDKRLLLQIFSETLMGPVFFEFIQRKGDDGFGPHSFKVLFEQMERDQVRRGVLTAD
modifications: mutant HPPD polypeptide
As to B3, the “Residual turnover [%]” value worked out at 53%, the Turnover is 0.314 and the Residual turnover is 0.166.

B4: SEQ ID NO: 6: mutant PfHPPD: 268A 270N 335P 336D 337S 340V (protein)
chain: MADLYENPMGLMGFEFIEFASPTPGTLEPIFEIMGFTKVATHRSKNVHLYRQGEINLILNNEPNSIASYFAAEHGPSVCGMAFRVKDSQKAYNRALELGAQPIHIDTGPMELNLPAIKGIGGAPLYLIDRFGEGSSIYDIDFVYLEGVERNPVGAGLKVIDHLTHNVYRGRMVYWANFYEKLFNFREARYFDIKGEYTGLTSKAMSAPDGMIRIPLNEESSKGAGQIEEFLMQFNGEGIQHVAFLTDDLVKTWDALKKIGMRFMTAPADNYYEMLEGRLPDHGEPVDQLQARGILLDGSSVEGDKRLLLQIFSETLMGPVFFEFIQRKGDDGFGPDSFKVLFESIERDQVRRGVLTAD
modifications: mutant HPPD polypeptide
notes: mutant PfHPPD: 268A 270N 335P 336D 337S 340V
Regarding B4, the “turnover / residual turnover in the presence of Cmpd. 1 compared with a reference HPPD polypeptide, in words” value is “increase in the absolute turnover and absolute residual turnover”.

B5: SEQ ID NO: 24: mutant PfHPPD: 268A 335P 336H 337S 340V (protein)
chain: MADLYENPMGLMGFEFIEFASPTPGTLEPIFEIMGFTKVATHRSKNVHLYRQGEINLILNNEPNSIASYFAAEHGPSVCGMAFRVKDSQKAYNRALELGAQPIHIDTGPMELNLPAIKGIGGAPLYLIDRFGEGSSIYDIDFVYLEGVERNPVGAGLKVIDHLTHNVYRGRMVYWANFYEKLFNFREARYFDIKGEYTGLTSKAMSAPDGMIRIPLNEESSKGAGQIEEFLMQFNGEGIQHVAFLTDDLVKTWDALKKIGMRFMTAPADTYYEMLEGRLPDHGEPVDQLQARGILLDGSSVEGDKRLLLQIFSETLMGPVFFEFIQRKGDDGFGPHSFKVLFESIERDQVRRGVLTAD
modifications: mutant HPPD polypeptide
notes: mutant PfHPPD: 268A 335P 336H 337S 340V
With B5, the “turnover / residual turnover in the presence of Cmpd. 1 compared with a reference HPPD polypeptide, in words” value is listed as “increase in the residual turnover”.

B6: 48 (protein)
chain: MADLYENPMGLMGFEFIEFASPTPGTLEPIFEIMGFTKVATHRSKNVHLYRQGEINLILNNEPNSIASYFAAEHGPSVCGMAFRVKDSQKAYNRALELGAQPIHIDTGPMELNLPAIKGIGGAPLYLIDRFGEGSSIYDIDFVYLEGVERNPVGAGLKVIDHLTHNVYRGRMVYWANFYEKLFNFREARYFDIKGEYTGLTSKAMSAPDGMIRIPLNEESSKGAGQIEEFLMQFNGEGIQHVAFLTDDLVKTWDALKKIGMRFMTAPGDNYYEMLEGRLPDHGEPVDQLQARGILLDGSSVEGDKRLLLQIFSETLMGPVFFEFIQRKGDDGFGPHSFKVLFEQMERDQVRRGVLTAD
modifications: mutant HPPD polypeptide
Take B6: the “Residual turnover [%]” value stood at 52%, the Turnover worked out at 0.225 and the Residual turnover was 0.117.

B7: SEQ ID NO:3 (protein)
chain: MADLYENPMGLMGFEFIEFASPTPGTLEPIFEIMGFTKVATHRSKNVHLYRQGEINLILNNEPNSIASYFAAEHGPSVCGMAFRVKDSQKAYNRALELGAQPIHIDTGPMELNLPAIKGIGGAPLYLIDRFGEGSSIYDIDFVYLEGVERNPVGAGLKVIDHLTHNVYRGRMVYWANFYEKLFNFREARYFDIKGEYTGLTSKAMSAPDGMIRIPLNEESSKGAGQIEEFLMQFNGEGIQHVAFLTDDLVKTWDALKKIGMRFMTAPADTYYEMLEGRLPDHGEPVDQLQARGILLDGSSVEGDKRLLLQIFSETLMGPVFFEFIQRKGDDGFGPDSFKVLFESIERDQVRRGVLTAD
modifications: mutant HPPD polypeptide
B7: the “turnover / residual turnover in the presence of Cmpd. 1 compared with a reference HPPD polypeptide, in words” value was “improvement regarding residual turnovers”.

B8: SEQ ID NO: 67: mutant PfHPPD: 213K 268A 270S 315R 335P 336H 337S 340V 344Q 345M (protein)
chain: MADLYENPMGLMGFEFIEFASPTPGTLEPIFEIMGFTKVATHRSKNVHLYRQGEINLILNNEPNSIASYFAAEHGPSVCGMAFRVKDSQKAYNRALELGAQPIHIDTGPMELNLPAIKGIGGAPLYLIDRFGEGSSIYDIDFVYLEGVERNPVGAGLKVIDHLTHNVYRGRMVYWANFYEKLFNFREARYFDIKGEYTGLTSKAMSAPDGMIKIPLNEESSKGAGQIEEFLMQFNGEGIQHVAFLTDDLVKTWDALKKIGMRFMTAPADSYYEMLEGRLPDHGEPVDQLQARGILLDGSSVEGDKRLLLQIFSERLMGPVFFEFIQRKGDDGFGPHSFKVLFEQMERDQVRRGVLTAD
modifications: mutant HPPD polypeptide
notes: mutant PfHPPD: 213K 268A 270S 315R 335P 336H 337S 340V 344Q 345M
Consider B8, for which the “turnover / residual turnover in the presence of Cmpd. 1 compared with a reference HPPD polypeptide, in words” value was “increase significantly the turnover and the residual turnover”.

B9: SEQ ID NO:71 (protein)
chain: MADLYENPMGLMGFEFIEFASPTPGTLEPIFEIMGFTKVATHRSKNVHLYRQGEINLILNNEPNSIASYFAAEHGPSVCGMAFRVKDSQKAYNRALELGAQPIHIDTGPMELNLPAIKGIGGAPLYLIDRFGEGSSIYDIDFVYLEGVERNPVGAGLKVIDHLTHNVYRGRMVYWANFYEKLFNFREARYFDIKGEYTGLTSKAMSAPDGMIRILLNEESSKGAGQIEEFLMQFNGEGIQHVAFLTDDLVKTWDALKKIGMRFMTAPPDTYYEMLEGRLPDHGEPVDQLQARGILLDGSSVEGDKRLLLQIFSETLMGPVFFEFIQRKGDDGFGPFNFKELFESIERDQVRRGVLTAD
modifications: mutant HPPD polypeptide
Turning to B9, the Residual turnover turned out to be 0.022.
